US20260201030A1, “ANTIBODY, ANTIBODY-DRUG CONJUGATE THEREOF AND USE THEREOF” (EVOPOINT BIOSCIENCES CO., LTD., priority 2021, published 2026)
Positions count from the first letter of the chain named.

B1: 25C7A5-HZ1: humanized anti-Claudin18.2 antibody, VH SEQ ID NO: 1, VL SEQ ID NO: 2, human IgG1/Kappa constant regions (antibody, V domains shown)
VH: QVQLVQSGAEVKKPGSSVKVSCKASGYTFTNYWLHWVRQAPGQGLEWMGMMHPISGSSNYAQKFQGRATLTVDKSTSTAYMELSSLRSEDTAVYYCARGLLSAMDYWGQGTLVTVSS
VL: EIVLTQSPATLSLSPGERATLSCKASENVKTYVSWYQQKPGQSPRLLIYEASNRYTGVPARFSGSGSATDFTLTISSLEPEDFAVYFCGQTYSFPPTFGQGTKVEIK
modifications: human IgG1/kappa constant regions
B2: 25C7A5-HZ2: humanized anti-Claudin18.2 antibody, VH SEQ ID NO: 3, VL SEQ ID NO: 2, human IgG1/Kappa constant regions (antibody, V domains shown)
VH: B1 VH with Q6E
VL: B1 VL
modifications: human IgG1/kappa constant regions

Tests used:
human Claudin18.2 [1] = target: T1, human Claudin18.2 (Homo sapiens, UniProt P56856); assay: Cell ELISA affinity before and after conjugation, L929-claudin 18.2 (human) cells; assay type: binding; details: FIG. 8A
T1 construct: expressed in transfected cells
Protocol: (§1) The cell binding affinity of the antibody before and after conjugation to the toxin was detected according to a method similar to that described in Example 2.2. L929-claudin 18.2 (human) or NUGC4 cells were digested with trypsin, collected by centrifugation, washed three times with pre-cooled PBS, resuspended, added to a 96-well plate at 5×10^4 cells/well, and incubated overnight. The cells were fixed with 4% paraformaldehyde and blocked with 2% BSA (in PBS) at 37° C. for 2 h. Each ADC drug or antibody subjected to gradient dilution was added, and the mixture was incubated at 37° C. for 2 h. […] A TMB substrate was added for color development, and after the reaction was stopped by 2 M HCl, OD450 nm values were read on a microplate reader.

[2] = tested on: cynomolgus monkey Claudin18.2; assay: FACS species affinity on HEK293T-Claudin18.2 (cynomolgus monkey) cells; assay type: binding; details: cell-based FACS
Protocol: The affinity of the anti-human Claudin18.2 humanized monoclonal antibodies for Claudin18.2 of different species was determined by flow cytometry (FACS). The experimental procedures were as follows: HEK293T-Claudin18.2 (cynomolgus monkey) cells, HEK293T-Claudin18.2 (mouse) cells and HEK293T-Claudin18.2 (rat) cells were digested, collected by centrifugation, washed three times with pre-cooled PBS, resuspended in 1% BSA (in PBS), and added to a 96-well pointed bottom plate at 3×10^5 cells/well. Each antibody subjected to gradient dilution was added, and the mixture was incubated at 4° C. for 1 h. The cells were washed three times with pre-cooled PBS, and then 1 μL of a fluorescent secondary antibody (APC: Biolegend-410712) was added to each well. The mixture was incubated at 4° C. for 0.5 h, and the cells were washed three times with pre-cooled PBS, then resuspended, and assayed on a flow cytometer.

human Claudin18.2 [3] = target: T1, human Claudin18.2; assay: Cell-based FACS affinity on HEK293T-Claudin18.2 (human) cells; assay type: binding
Protocol: The affinity of the anti-human Claudin18.2 humanized antibodies was detected by flow cytometry. The experimental procedures were as follows: The adherent cultured HEK293T-Claudin18.2 (human), NUGC4-Claudin18.2 (human) and NUGC4 cells were digested, collected by centrifugation, and washed three times with pre-cooled PBS. The cells were resuspended in 1% BSA (in PBS) and added to a 96-well pointed bottom plate at 3×10^5 cells/well, with a volume of 50 μL per well. Each test antibody was diluted with 1% BSA (in PBS) (starting at 100 μg/mL, diluted in a 3-fold gradient, for 10 concentration points). The test antibody subjected to gradient dilution was added to the cells at 50 μL/well, and the mixture was well mixed and incubated at 4° C. for 1 h. The cells were collected by centrifugation, washed three times with pre-cooled PBS, and resuspended in 50 μL of 1% BSA (in PBS). 1 μL of a fluorescent secondary antibody (Biolegend-410712) was added to each well, and the mixture was well mixed and incubated at 4° C. for 0.5 h. The cells were collected by centrifugation, washed three times with pre-cooled PBS, resuspended in 200 μL of PBS, and assayed on a machine.

human Claudin18.1 = target: T2, human Claudin18.1 (Homo sapiens, UniProt P56856); assay: FACS specificity of humanized antibodies on HEK293T-Claudin18.1 (human) cells; assay type: binding; details: antibody 50 μg/mL, PE secondary antibody
T2 construct: expressed in transfected cells
Protocol: The specificity of the anti-human Claudin18.2 humanized monoclonal antibodies was determined by flow cytometry (FACS). The experimental procedures were as follows: HEK293T-Claudin18.1 (human) cells were digested, collected by centrifugation, washed three times with pre-cooled PBS, resuspended in 1% BSA (in PBS), and added to a 96-well pointed bottom plate at 3×10^5 cells/well. Each test antibody with a final concentration of 50 μg/mL was added, and the mixture was incubated at 4° C. for 1 h. The cells were washed three times with pre-cooled PBS, and then 1 μL of a fluorescent secondary antibody (APC: Biolegend-410712 or PE: BioLegend-410708) was added to each well. The mixture was incubated at 4° C. for 0.5 h, and the cells were washed three times with pre-cooled PBS, then resuspended, and assayed on a flow cytometer. For reference, anti-human Claudin18.1 positive control antibodies (positive control antibody-1 and positive control antibody-2) were included in the experiment.

human Claudin18.2 [4] = target: T1, human Claudin18.2; assay: Cell ELISA affinity before and after conjugation, NUGC4 cells; assay type: binding; details: FIG. 8B
Protocol: as §1

human Claudin18.2 [5] = target: T1, human Claudin18.2; assay: Cell-based ELISA affinity of humanized antibodies on L929-Claudin18.2 (human) cells; assay type: binding; details: L929-Claudin18.2 cells
human Claudin18.2 [6] = target: T1, human Claudin18.2; assay: Cell-based ELISA affinity on NUGC4 cells endogenously expressing human Claudin18.2; assay type: binding; details: for NUCG4 Maximum signal value: OD450
[7] = tested on: HEK293T-Claudin18.2 (human) cells; assay: ADCC activity, fluorescein reporter system (Jurkat-NFAT-CD16a); assay type: cell-based; details: HEK293T-Claudin18.2 (human) target cells, 5 h
Protocol: ADCC activity of the anti-human Claudin18.2 humanized monoclonal antibodies was detected by a fluorescein reporter system. The experiment was carried out using a Rhinogen® Bio-Glory One-Step Firefly Luciferase Assay kit (Suzhou Rhino Bio, RA-GL04), following the manufacturer's instructions. The experimental procedures were as follows: HEK293T-Claudin18.2 (human) cells were digested, collected by centrifugation, resuspended in DMEM+1% FBS, and then plated at 50000 cells/well. Jurkat-NFAT-CD16a cells were collected by centrifugation and resuspended in 1640+1% FBS, and then plated at 100000 cells/well. Each test antibody subjected to gradient dilution was added, and the mixture was incubated at 37° C. for 5 h. 50 μL of a Bio-Glory One-Step luciferase substrate was added to each well, and readings were taken on a microplate reader (MD, SpectraMax i3x).

[8] = tested on: HEK293T-Claudin18.2 (human) cells; assay: CDC activity, guinea pig serum killing experiment; assay type: cell-based; details: 20% guinea pig serum, 5 h
Protocol: CDC activity of the anti-human Claudin18.2 humanized monoclonal antibodies was detected by a guinea pig serum killing experiment. The experimental procedures were as follows: HEK293T-Claudin18.2 (human) cells were digested, collected by centrifugation, plated at 50000 cells/well, and incubated overnight. The supernatant was discarded, and 100 μL of each test antibody subjected to gradient dilution with DMEM+20% guinea pig serum (Beijing Bersee, BM361Y) was added to each well. The mixture was incubated at 37° C. for 5 h, and 20 μL of a CCK8 reagent (Suzhou Rhino Bio, QDY-003-D) was added to each well. The mixture was allowed to react for 1-4 h, and readings were taken at 450 nm on a microplate reader.

Row | Molecule | change in affinity for the cells before and after conjugation (human Claudin18.2 [1]) | HEK293T-Claudin18.2 (cynomolgus monkey) EC50 [2] [µg/mL] | HEK293T-Claudin18.2 EC50 (human Claudin18.2 [3]) [µg/mL] | HEK293T-Claudin18.2 Maximum signal value (human Claudin18.2 [3]) | Mean PE fluorescence signal value (human Claudin18.1) | Median PE fluorescence signal value (human Claudin18.1) | Positive rate (%) (human Claudin18.1) | change in affinity for the cells before and after conjugation (human Claudin18.2 [4]) | Affinity detected by cell-based ELISA (EC50, ng/mL) L929-Claudin18.2 (human Claudin18.2 [5]) | NUCG4 EC50 (human Claudin18.2 [6]) [µg/mL] | NUCG4 Maximum signal value (human Claudin18.2 [6]) | ADCC activity EC50 [7] [µg/mL] | CDC activity EC50 [8] [µg/mL]
1 | B1 | no significant changes in the affinity | 0.2398 | 0.292 | 113572 | 583 | 504 | 0.54 | no significant changes in the affinity | 13.41 ng/mL | 0.1012 | 0.304 | 0.04649 | 3.137
2 | B2 | no significant changes in the affinity | 0.2133 | 0.2928 | 119070 | 559 | 471 | 0.55 | no significant changes in the affinity | 14.80 ± 3.1(N = 2) ng/mL | 0.1225 | 0.313 | 0.04875 | 3.283
